# Laboratory results reported in the domain aggregation screens of Martell et al. (2025).
# Test: soluble fraction after stress (log2 fold change); higher = more stays soluble; pooled small domains, quantitative proteomics
# Settings: stress: pH 4
# In short: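 Following acid stress at pH 4, the amount of each small protein domain still soluble was measured in pooled custom libraries by high-throughput quantitative proteomics. Its fold change, on a log2 scale, is higher when more of the domain stayed soluble. This fold change is taken as a measure of aggregation propensity.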
row,Sequence,soluble fraction (log2)
1,HMATPYISMAGIGKSFGPVHALKSVNLTVYPGEIHALLGENGAGKSTLMKVLSGIHEPTKGTITINNIN,≥ 0.43
2,HMKIRIIKTASNAKAVQIVSYKNNKRIVLQHIGSAHTDETLNDLKILAEEWIKDYNHQLSIF,-0.671
3,HMEWVVVPDVRRQLLPEAQRRVNKARLRLEVAGGWPAEPLLAMVVDQKPGPETRVPLNSIVVVVVRNLP,-0.0893
4,HMNESPVLAVLTPTERKVASLVAEGLTNQAIAARMILAEGTVKNHVSTLLHKLQAPDRTALALTLYKAFQ,0.165
5,HMKLINEDLNNEIVFEENKVNLLVIENKKKFVQFIQEIIKQINGDEGKFSLFDINTELKIHDKIDII,-0.0802
6,HMTKEEKEKREKYEKLMKKADELVTAKNHKEAVTVLGQAKAYANPQQTKEIEEKIKAQTAELDKG,0.24
7,HMKELTYSDFRKAYPDIQGNLFGMAERYITALDWTEVAAKVETDEELRKERDIFYLVKTYIRKYVQ,-0.695
8,HMIGRRLKVARASAGLSLRELAARMDGVVTPQAIGKYERNEDMPGSRALMALASALGVSEGYLLSD,-0.0156
9,HMSNSGFVKNNGKTEFYDASGRQAKSSWINISGKWYYFDLNGTMVTGWQRISNKWYYFLEDGSK,0.342
10,HMEPEAKIDFILKAAQKRLGLYGYEKTTMQEIAADINMSKAALYYYFPDKESLFKAVVENEQEEYFH,-1.24
11,HMVDSTDLIPLLIKVSREKQGNKKLNWGEWLKIPENIYLKQINENIARKVFEDTNDLIDEAVNYINRKRRN,-0.558
12,HMKAGAVFNEGDVLYPKIGGLKLMAAAGEGGKVVATLAKTDEMIYMGEEQSGFVKVESGSGSGWVKKILVA,0.202
13,HMDPNAITSAQVTKLQVLANEKGFAERQARLTMWAEVIGRNVGTANELTKAEAHKLIEHMDALPV,-0.162
14,HMRSEILNLLREKSPQPVSGQDLANHFGITRTAVWKHIQSLKKMGYGIEAYTKKGYVLVSVPN,0.175
15,HMGITRQQALQQINQSASPKKILNASLGKRGSEFVWDIGYLSKSGKLNYVTYSFRSGEQLNAIKN,-0.504
16,HMPTMTDIPIKIIRSRRRTLAIEVREGGEVIVRAPLYSRKAEIDAFVKAHENWIITKYNLMITKQN,0.352
17,HMAGTGKVNTGVANVRSGPGTNYEISGKIYADTEVSILETSNGWYKIKFGNLTGWMSGTVLDIK,-0.0124
18,HMTAPDDFIRAEVTASGKNGMAVAELSKRVRTRFKSFKVRELGYPHLAGYLADVEGVRVYKQGRENWVAK,-0.241
19,HMVPEEEATKISVQNVGASDYNFTVKGVQANDPTLTLVRGKTYEFDVTSLGHPFWIKTQKVTGSSSQY,-0.139
20,HMHQKELLNLSYKEAKRYILDDFERVFFTNLLRKTGGNVSRAAQLAQVHRKNLYVKLTELGIDPRQFG,-0.585
21,HMSKEEAIQAMKEGKKVTHRFFSSDEWMTIENGFLLLEDGVRISLEDFFNFRSDSLWDNGYELYNPH,-0.768
22,HMNSTRAPYLLDFEEDAAIREARRAGLVPRIARQPSGEPVGRVILQSHDYDYPMKRGDTILITISSG,-0.797
23,HMFERISELLTDEELAVYKRGRNANASSVPKHADIADYRRATGVEALFGYLYIKGEIDRINQLFELA,-0.635
24,HMVGVDMTVKEEVGKEGVTFTDLRPAGKVEIGNDIYDAVSNTGAFIQKGEKVKIIKYQAGQVYVEKLV,0.187
25,HMHMIDDYLARIGQLIRDARQHRGWTQVQLAEALGTSQSAVNRIERGNQNISLEMIARIGEALGSEIVSLG,-0.64
26,HMEEITLIAEDEGLRLDTWLTDKLKDYSRSYIQKLMEDELVLVNGKARKANYRIKTGDEIHVSIPEPE,-0.507

row,Sequence,soluble fraction (log2)
1,HMKNTYTVVSGDTLWGIASRKLGGGSNWTKIYDANAATIESVANRRRGGRGSDHGHWIYPGTVLTI,0.216
2,HMAPNVEENSKLIGEIGMTLTPLRPSGIATINNRRVDVVSNGDFIDQDERVMVKRVQGARVVVIPV,0.1
3,HMGGLLSVIQKKAINNVKDRYSENAIKSMTKVQLHDLIKAETSRLLDPANAKETPEYQAFLEE,0.116
4,HMRKMNDAVFYVEMSRPKRGYYTATYKLITRNPNSLPEHEITRRFFQMLEETIRKNPPYYLWTH,0.104
5,HMQQTAEDWKNKGDSLTAQSEYVEAIAAYDEAIRLDPNYAPAWSNKGNALKNLGEYYKAIQAYDEAIRL,-1
6,HMDRNEFVSTLRAALTGAVSPAIVEDNVRYYQNYISQEIASGKSEKEVLDGLGDPRLIARTIIDT,0.14
7,HMSNWTILIIQGSAHLIDLDSKITEIDGFGSFPTKILQDYNLNEEFEIFDTNVKMVNSVQSDLQSN,-1.97
8,HMAANKIDEDRNTELLQVIQNKFPDADAATKKSVKEIMKEHDIPNFKNADDIPTAVLEQIVKVLNQ,-0.128
9,HMRKKIIAQTLEEIRKSKGYSQKQVAAFIKVKPTTYNTYESGRTEPPAEILVRLSYLYRTPVDTLVQRDR,0.226
10,HMVAQEVPYSTFVMRLDRNEVDAVKIIDGNEIEGTFKSPNGDLVQFKTLIPYQDTELMPLLKQKGVRISGS,≥ 0.43
11,HMQETALANFETNEGVQKVKQYVQENVPSLRGSNIVGVWTSYTPEGLTNYRTRFLTQDGQFVEVNLAYQ,-0.885
12,HMSWAAQVVDKMTNDQLIKSLNEIVNTGKQLGLDITVEQNGDKNFIMTVKDSKGNVQLVTPIG,-0.937
13,HMTMVVIMNADATQADIEGVISAIEEKGLEAKVMEGAHQKIVGVIGDKTKLAATPLDAMHGVETTVAIS,0.131
14,HMHIMINPDQLSPEQIQSIRTWAEEGLDLNAIQKRLHEDLNIKLTFMDTRFLLQDLDIRIRQPEPEPEAEQ,-0.67
15,HMVTNELFGTRLRAFRKEKGLTIEQLAERVGLSPNYLGDIERGKKLPSMATFIRLVNELDISADEL,0.174
16,HMGIVAGGTQSIATLRAIDTTDAQLYPDKILINVEDAGLYRLDRQSTATDDGNQVIKPTVGVGRWLKMTS,0.0998
17,HMTVKKEIAKVKPTPLGWLRVRETPSLNGAEITKVNTGESYDVLDKETGWIKIKVSETVEGWVSDAYIELS,0.124
18,HMSKPVYILINKPKGFLASSTDKKVKKSVNDLINISNLNKIYPFDNMGRTSSGLLLLSNDLYFKKHFKDKI,0.209
19,HMRTTTGSEGMIGSIGKAKTDLAPDGKIFIHGELWDATSSSPVSAGQKIEVTQIEGLKLHVKPVL,0.12
20,HMNLAPLLTEYVQINFRRASEMKTYLEQANLISERGFLLADDQTNILMVRETGASIEEIRRTLNRF,-1.61
21,HMHNPSYDMSKDVDILVMKFRDYNNLTDDEARFLLDKAKDAYYNTGKEILSDNEYDTLEKSLGQE,-1.17
22,HMDGTVRGKTTFQELLDWGVPQERIEAVLGGPIPAPGVVIKDYVTAQGKEFSAVRDALQAEVDAVLK,-0.229
23,HMRKVVLEEKEANYYAEPNSESELLGVLKRGIHLTVTDVKKEAGSDGWVKLVHPDGQEGWISGRARIRV,-0.209
24,HMGQEEKDIFLKLINISGIGPKLALNILSGIEASELEEAVRNTNVTRLSMVPGIGQKTALRIIMELSDKLE,-0.881
25,HMHEGNWTLPNPMPIGTTLTLPEHSRLYISNLAGQRVFETSATSVEIPLLPKGTYLLRLETMNGHTTRKIL,0.00873
26,HMAMDYEGFKKSVYALTSIDLNAYKERQMKRRIDTLIAKNKYNGYEDYTAAIKKDKALFEEFVNYLTIN,-0.521

row,Sequence,soluble fraction (log2)
1,HMQDSSGENNPQSKLTQQQVDLLMKDLKETNVEFDKLAEKYNVSIKTIRNVNTGIAWRKNDITYPIREP,-0.255
2,HMQGISGIERSLLDALAFEPAGLDALQARTGLDTPTLQALLMGLELQGHVARLPGSLFQRLVR,-1.35
3,HMSGNPLDTYYSKWSAEIKKGSPNAVISKEGDKYYVSIPGENRMAIIYENPHLIRMVNATRNIHVE,0.0911
4,HMEPMNMYSSIKKVIGVVSGKGGVGKSLVTASLARMMRAKGYHVGIMDADITGPSIPKMYGLHEMA,0.0444
5,HMGDTISVPAVRTLAYNKAMDILNAEGLKGIVADSVYDNHTAPGTVIEQNPKAGTIVKEGREVFLTIHA,-0.0483
6,HMSNQLAVPDVTNMKANAAADRLRQQGLRVELKTESSNTVPRGMAIRTDPAASTMVARGGRVTLIISSGKG,-0.0724
7,HMARNHYETLGVGRTATGDEIRKAYRSEAQKHHPDRGGDAERMQSLNEARDTLLDDQARAAYDQELDL,-0.0435
8,HMTGINMSYEEYKAMADIIVPLIKAGHSPYHIVTNHPELNISEKTLYNYIENGIFREFGLLDINL,-1.91
9,HMYPATGTVVTAGGHLNMRSEPDRSGAILARIPNGTALTLTGKNGDWYAATYAGRSGYVSAQYISLS,-0.13
10,HMNVAVGNSKLVGVAGERAYFVNGVGAAARTLSLQVGDALPTGEKVRRIERDGVTMTGASGDVRLSVLP,0.138
11,HMNIAAVIGQTGVLQDDLKAGEQGTVKADNKLWTAVLAEGEEAVKKEERVDIVAVEGVKLIVRRNI,-1.14
12,HMHQPPDLDDFEAFVGRVKPALLQALVATYGPVDGREATVDALSWAWEHWDRLADVDHPVGYLYRV,-0.189
13,HMSSQGQNTKTGTVTASALYVRSGAGTNYSQIGYLLKNTKVEIVGQTGSWYKIKFGSGTGYVSSKYIK,0.0256
14,HMKQVEVESVIGKSEEAANSILTKAGLKVNIGYKEDSSKPTDTVLSQDPAPGEKVDEGTTVTIVVNNYKKP,-0.127
15,HMDTAGSVAIVSKSVIENGFGEIKYKGTYFKAQSDVYIPKDQMVKVIGKGDEQGSFLIVEKLN,-0.0172
16,HMDTLRPLGRYQNVHLTKQELTALQSEFSDWSERIERLSSYMASTGRKYQNHAATIRLWAEKDK,0.161
17,HMIAASQVLRDARQRSRLTQAELGRRADVPQSVISAYESARREPSVDMLARLVAAAGFDLRIGLTP,-0.377
18,HMKFTPPTLEQIKNEMLLKTDEYNADIQSDRFFTYYDSNGWMVGKNKMKKFLVSLVAVFAATSA,-0.374
19,HMNKMIIELGEKLKALRTENHLRQDQVARLVNVEKSSISMYETGMRQPSYTTLVRLADVFNVTTDYLLGRK,0.307
20,HMHVLNEEYYNRIKAIQFTMNHDDGNSLNDIEKSDIILLGVSRTSKTPTSIYLANRGLRTSNIPLINEK,-0.316
21,HMHMHTADDFKQLAKHTSNGRLRTRYLALYHFKKGETRTQIAAYLGVARGSVNTWVSNYLAYGLEGLQS,-0.0479
22,HMKSSISKNWNPSKDAIEILTRAGIDQEFLENLIPEFVIYWIERSDVLISYNSKFIEHARLKWAQHTAEIQ,-0.106
23,HMEDEISLGAINVPRGSVIVTAGGARLVEGSDYTVDYYSGTVKILNKSLLDAGTPINVSLET,-0.0859
24,HMTHPAHLARIGALIRSARQHEGLTQAQLAELLGTSQSAIHRIEQGGQNITLDMLTRISAALDSEIVTIG,-1
